Reference: patent publication US20200181261A1 (Bayer, published 2020)

T1: Macaca fascicularis CEACAM6, extracellular (mature form), obtained by Factor Xa cleavage of TPP-2443 (Macaca fascicularis)
T1 construct: used biotinylated in some assays; also called APP-319; Cynomolgus CEACAM6
T1 chain: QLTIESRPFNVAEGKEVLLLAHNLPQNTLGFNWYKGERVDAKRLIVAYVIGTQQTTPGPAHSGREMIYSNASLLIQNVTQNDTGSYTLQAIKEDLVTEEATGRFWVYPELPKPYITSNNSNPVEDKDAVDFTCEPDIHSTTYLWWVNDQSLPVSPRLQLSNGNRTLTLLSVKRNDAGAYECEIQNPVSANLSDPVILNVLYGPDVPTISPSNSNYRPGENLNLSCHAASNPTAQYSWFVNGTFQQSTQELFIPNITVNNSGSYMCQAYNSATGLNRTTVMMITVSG

T2: human CEACAM19, full-length, on transfected HeLa cells (human, UniProt Q7Z692 33-300)
T2 construct: also called TPP-4186; HeLa human CEACAM19
T2 sequence: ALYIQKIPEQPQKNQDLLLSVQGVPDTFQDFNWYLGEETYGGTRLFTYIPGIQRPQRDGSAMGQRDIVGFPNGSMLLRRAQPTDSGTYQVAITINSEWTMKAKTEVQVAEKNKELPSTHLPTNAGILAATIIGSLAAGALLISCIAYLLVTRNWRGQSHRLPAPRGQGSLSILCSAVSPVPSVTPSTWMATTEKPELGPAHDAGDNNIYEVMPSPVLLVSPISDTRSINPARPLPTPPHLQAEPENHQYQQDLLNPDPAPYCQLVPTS

T3: human CEACAM1, extracellular (mature form), R&D Systems 2244-CM (human, UniProt P13688 35-428)
T3 construct: used biotinylated in some assays; also called TPP-1437; hC1
T3 sequence: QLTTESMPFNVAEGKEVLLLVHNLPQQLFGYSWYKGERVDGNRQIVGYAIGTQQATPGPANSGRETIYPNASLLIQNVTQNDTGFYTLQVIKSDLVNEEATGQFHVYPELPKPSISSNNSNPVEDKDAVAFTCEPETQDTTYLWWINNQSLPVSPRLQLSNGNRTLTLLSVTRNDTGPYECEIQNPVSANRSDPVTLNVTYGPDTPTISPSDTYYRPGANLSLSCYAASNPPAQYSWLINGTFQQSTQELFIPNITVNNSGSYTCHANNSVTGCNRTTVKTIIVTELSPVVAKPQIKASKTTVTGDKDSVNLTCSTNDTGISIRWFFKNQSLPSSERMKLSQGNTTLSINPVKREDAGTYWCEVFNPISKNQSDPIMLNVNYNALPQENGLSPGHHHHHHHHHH


Legend:
[1] = target: T1, Macaca fascicularis CEACAM6, …; assay: ELISA, antibody captured, biotinylated antigen titrated
Description: The binding characteristics of these antibodies were also determined by a binding ELISA (monovalent binding, biotinylated CEACAM proteins): A 1:440 dilution of an anti-human IgG (Sigma, 12136) in Coating buffer (Candor) was used to coat black 384-well Maxisorp plates (Nunc) for 1 hour at 37° C. After one wash with PBS/0.05% Tween-20 the plates were blocked with 100% SmartBlock (Candor) for 1 hour at 37° C. After three washes, 2 μg/ml of the relevant antibodies were added to the plate in PBS/0.05% Tween-20/10% SmartBlock. The plates were incubated for 1 hour at room temperature. After three washes dilution series of the relevant biotinylated CEACAM proteins in PBS/0.05% Tween-20/10% SmartBlock were added and the plates were incubated for one hour at room temperature. After three washes 1 μg/ml of Streptavidin-Peroxidase (Sigma, S5512) in PBS/0.05% Tween-20/10% SmartBlock was added and the plates were incubated for 30 minutes at room temperature. After three washes, the plates were developed with Amplex Red (Life Technologies) and fluorescence was read at an emission wavelength of 590 nm. GraphPad Prism 6.0 software was used to calculate EC₅₀ values using four-parameter non-linear curve fit.

[2] = target: T2, human CEACAM19, full-length, on …; assay: FACS, transfected HeLa cells
Summary of the method: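 Antibody binding to transfected HeLa cells was measured by FACS on a Canto II or FACS Array instrument. For half maximal binding (EC₅₀), primary antibodies were titrated from 0.1 nM to 100 nM. Median fluorescence intensity was plotted against log concentration, and curves were fitted in Graph Pad prism. Cells had been released with EDTA dissociation buffer and stained at 4° C.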

[3] = target: T3, human CEACAM1, extracellular (mature …); assay: SPR, antibody captured, antigen as analyte
Description: Surface plasmon resonance (SPR) experiments for quantitative binding analyses were performed either using a Biacore T100, Biacore T200 or a Biacore 4000 instrument (GE Healthcare Biacore, Inc.) equipped with Series S Sensor Chips CM5 (GE Healthcare Biacore, Inc.). Binding assays were carried out at 25° C. with assay buffer HBS-EP+(10 mM HEPES pH 7.4, 150 mM NaCl, 3 mM EDTA, 0.05% Surfactant P20). Antibodies were captured with an anti-hIgG capture antibody covalently immobilized to the chip surface via amine coupling chemistry. Reagents for amine coupling (1-ethyl-3-(3-dimethylaminopropyl) carbodiimide hydrochloride (EDC), N-hydroxysuccinimide (NHS), ethanolamine-HCl pH 8.5) were used from the Amine Coupling Kit (GE Healthcare, product code BR-1000-50). Anti-hIgG, anti-mIgG capture antibodies and immobilization buffer (10 mM sodium acetate pH 5.0) were used from the Human Antibody Capture Kit (GE Healthcare, BR-1008-39) and the Mouse Antibody Capture Kit (GE Healthcare, BR-1008-38), respectively. The sensor chip surface was activated with a freshly prepared solution of 0.2 M EDC and 0.05 M NHS passed over the chip surface for 420 s at a flow rate of 10 μl/min, followed by an injection of anti-hIgG or anti-mIgG capture antibody (dissolved to 25 μg/ml in immobilization buffer) for 180 s at a flow rate of […]. Excess of activated groups were blocked with a 1 molar solution of ethanolamine injected at a flow rate of 10 μl/min for 420 s.
CEACAM antigens were used as analyte to determine KD values. Antibodies were captured for 20 s at a flow rate of 10 μl/min prior to each analyte injection.
Obtained sensorgrams were double-referenced, i.e. in-line reference cell correction followed by buffer sample subtraction.

Binder	EC50 [1]	binding result [2]	binding result [3]
TPP-3705 (antibody, human IgG2, kappa, V domains shown, also called 090E-M007-A09-Mat1-hIgG2-hIgG2Kappa) VH: EVQLVESGGGLVQPGGSLRLSCAASGFTFSLYQMHWVRQAPGKGLEWVSWISFSGGNTGYADSVKGRFTISRDNSKNTLYLQMNSLRAEDTAVYYCARATGYSSPWYLDPWGQGTLVTVSS VL: DIQMTQSPSSLSASVGDRVTITCQASHEIDNYLNWYQQKPGKAPKLLIYDAYWLKTGVPSRFSGSGSGTDFTLTISSLQPEDIATYYCQGYDDLSVTFGGGTKVDIKR	0.12 nM	–	–
TPP-3707 (antibody, human IgG2, kappa, V domains shown, also called 090E-M007-A09-Mat2-hIgG2-hIgG2Kappa) VH: EVQLVESGGGLVQPGGSLRLSCAASGFTFSLYQMHWVRQAPGKGLEWVSWISFSGGNTGYADSVKGRFTISRDNSKNTLYLQMNSLRAEDTAVYYCARATGYSSPWYLDPWGQGTLVTVSS VL: DIQMTQSPSSLSASVGDRVTITCQASHEIDNYLNWYQQKPGKAPKLLIYDAYWSKTGVPSRFSGSGSGTDFTLTISSLQPEDIATYYCQGYDDLSVTFGGGTKVDIKR	0.11 nM	no binding (tested: 5 µg/ml)	–
TPP-3714 (antibody, human IgG2, kappa, humanized from TPP-2971, human IgG2; also called TPP-2971HU2-hIgG2Kappa) heavy: QVTLRESGPALVKPTQTLTLTCTFSGFSLSTYGIGVGWIRQPPGKALEWLAHIWWNDNKYYSTSLKTRLTISKDTSKNQVVLTMTNMDPVDTATYYCARISLPYFDYWGQGTLVTVSSASTKGPSVFPLAPCSRSTSESTAALGCLVKDYFPEPVTVSWNSGALTSGVHTFPAVLQSSGLYSLSSVVTVPSSNFGTQTYTCNVDHKPSNTKVDKTVERKCCVECPPCPAPPVAGPSVFLFPPKPKDTLMISRTPEVTCVVVDVSHEDPEVQFNWYVDGVEVHNAKTKPREEQFNSTFRVVSVLTVVHQDWLNGKEYKCKVSNKGLPAPIEKTISKTKGQPREPQVYTLPPSREEMTKNQVSLTCLVKGFYPSDIAVEWESNGQPENNYKTTPPMLDSDGSFFLYSKLTVDKSRWQQGNVFSCSVMHEALHNHYTQKSLSLSPG light: DIQLTQSPSFLSASVGDRVTITCKASQNVGTAVAWYQQKPGKAPKLLIYSASNRYTGVPSRFSGSGSGTEFTLTISSLQPEDFATYYCQQYSSYPLTFGGGTKVEIKRTVAAPSVFIFPPSDEQLKSGTASVVCLLNNFYPREAKVQWKVDNALQSGNSQESVTEQDSKDSTYSLSSTLTLSKADYEKHKVYACEVTHQGLSSPVTKSFNRGEC	0.07 nM	no binding (tested: 5 µg/ml)	no binding (tested: 200 nM)
TPP-2971 (antibody, mouse IgG1, V domains shown, murine hybridoma antibody, mouse IgG1; also called 792.15H12C9) VH: QVTLKESGPGILQPSQTLSLTCSFSGFSLSTYGIGVGWIRQPSGKDLEWLAHIWWNDNKYYNTALKSRLTISKDTSNNQVFLKIASVDTADTATYYCARISLPYFDYWGQGTTLTVSS VL: DIVMTQSQKFMSTSVGDRVSITCKASQNVGTAVAWYQQKPGQSPKLLIYSASNRYTGVPDRFTGSGSGTDFTLTISNMQSEDLADYFCQQYSSYPLTFGAGTKLELK	–	–	no binding (tested: 200 nM)
TPP-3821 (antibody, human IgG2, kappa, V domains shown, humanized from TPP-3187, human IgG2; also called 3187HU2-hIgG2Kappa) VH: QVTLRESGPALVKPTQTLTLTCTFSGFSLSTYGIGVGWIRQPPGKALEWLAHIWWNDNKYYSTSLKTRLTISKDTSKNQVVLTMTNMDPVDTATYYCARISLPYFDYWGQGTLVTVSS VL: DIQLTQSPSFLSASVGDRVTITCKASQNVGTAVAWYQQKPGKAPKLLIYSASNRYTGVPSRFSGSGSGTEFTLTISSLQPEDFATYYCQQYNNYPLTFGGGTKVEIKR	–	no binding (tested: 5 µg/ml)	no binding (tested: 200 nM)
TPP-3820 (antibody, human IgG2, kappa, V domains shown, humanized from TPP-3187, human IgG2; also called 3187HU1-hIgG2Kappa) VH: QVTLRESGPALVKPTQTLTLTCTFSGFSLTTYGIGVGWIRQPPGKGLEWLAHIWWNDNKYYSTSLKTRLTISKDTSKNQVVLTMTNMDPVDTATYYCARISLPYFDYWGQGTLVTVSS VL: DIQLTQSPSFLSASVGDRVTITCKASQNVGTAVAWYQQKPGKAPKLLIYSASNRYTGVPSRFSGSGSGTEFTLTISSLQPEDFATYYCQQYNNYPLTFGGGTKVEIKR	–	no binding (tested: 5 µg/ml)	no binding (tested: 200 nM)
TPP-3310 (antibody, human IgG2, kappa, humanized from TPP-2971, human IgG2; also called TPP-2971HU1-hIgG2Kappa) heavy: QVTLRESGPALVKPTQTLTLTCTFSGFSLSTYGIGVGWIRQPPGKALEWLAHIWWNDNKYYSTSLKTRLTISKDTSKNQVVLTMTNMDPVDTATYYCARISLPYFDYWGQGTTLTVSSASTKGPSVFPLAPCSRSTSESTAALGCLVKDYFPEPVTVSWNSGALTSGVHTFPAVLQSSGLYSLSSVVTVPSSNFGTQTYTCNVDHKPSNTKVDKTVERKCCVECPPCPAPPVAGPSVFLFPPKPKDTLMISRTPEVTCVVVDVSHEDPEVQFNWYVDGVEVHNAKTKPREEQFNSTFRVVSVLTVVHQDWLNGKEYKCKVSNKGLPAPIEKTISKTKGQPREPQVYTLPPSREEMTKNQVSLTCLVKGFYPSDIAVEWESNGQPENNYKTTPPMLDSDGSFFLYSKLTVDKSRWQQGNVFSCSVMHEALHNHYTQKSLSLSPG light: DIQLTQSPSFLSASVGDRVTITCKASQNVGTAVAWYQQKPGKAPKLLIYSASNRYTGVPSRFSGSGSGTEFTLTISSLQPEDFATYYCQQYSSYPLTFGGGTKVEIKRTVAAPSVFIFPPSDEQLKSGTASVVCLLNNFYPREAKVQWKVDNALQSGNSQESVTEQDSKDSTYSLSSTLTLSKADYEKHKVYACEVTHQGLSSPVTKSFNRGEC	0.07 nM	no binding (tested: 5 µg/ml)	no binding (tested: 200 nM)
